Measurements as given in patent US20170189507A1.

Each binder was assayed against HLA-A*24 (human) (assay: UV-ligand exchange ELISA).

Row | Binder | peptide exchange yield [%]
1 | TYIKPISKL [peptide SEQ ID No 273] | 50 to 75
2 | IFLDYEAGTLSF [peptide SEQ ID No 227] | > 75
3 | LYHDIFSRL [peptide SEQ ID No 271] | > 75
4 | EFGSLHLEFL [peptide SEQ ID No 194] | < 20
5 | EYNQWFTKL [peptide SEQ ID No 176] | 50 to 75
6 | LYLDKATLI [peptide SEQ ID No 198] | 50 to 75
7 | FFPPTRQMGLLF [peptide SEQ ID No 217] | > 75
8 | TYTQDFNKF [peptide SEQ ID No 208] | 50 to 75
9 | RYFKGLVF [peptide SEQ ID No 188] | 50 to 75
10 | IFIEVFSHF [peptide SEQ ID No 178] | 50 to 75
11 | SYALLTYMI [peptide SEQ ID No 192] | > 75
12 | VFQNFPLLF [peptide SEQ ID No 184] | > 75
13 | VHIPEVYLI [peptide SEQ ID No 205] | 50 to 75
14 | WYVNGVNYF [peptide SEQ ID No 189] | 20 to 49
15 | LYIDRPLPYL [peptide SEQ ID No 196] | 50 to 75
16 | IYKVGAPTI [peptide SEQ ID No 185] | 50 to 75
17 | HYSQELSLLYL [peptide SEQ ID No 158] | > 75
18 | RYPDNLKHLYL [peptide SEQ ID No 280] | > 75
19 | EYPLVINTL [peptide SEQ ID No 219] | 50 to 75
20 | IFPQFLYQF [peptide SEQ ID No 186] | > 75
21 | LFIPSSKLLFL [peptide SEQ ID No 171] | 50 to 75
22 | RYSTGLAGNLL [peptide SEQ ID No 221] | 50 to 75
23 | QYLENLEKL [peptide SEQ ID No 224] | 50 to 75
24 | NYINRILKL [peptide SEQ ID No 167] | > 75
25 | QYLQDAYSF [peptide SEQ ID No 272] | > 75

Row | Binder | peptide exchange yield [%]
26 | LYNKGFIYL [peptide SEQ ID No 159] | > 75
27 | TYGDAGLTYTF [peptide SEQ ID No 283] | 50 to 75
28 | YFDKVVTL [peptide SEQ ID No 215] | 20 to 49
29 | VYPWLGALL [peptide SEQ ID No 177] | > 75
30 | LYLDIINLF [peptide SEQ ID No 181] | > 75
31 | DYTTWTALL [peptide SEQ ID No 165] | > 75
32 | DYLKGLASF [peptide SEQ ID No 163] | > 75
33 | VYVSDIQEL [peptide SEQ ID No 288] | 50 to 75
34 | FYSRLLQKF [peptide SEQ ID No 203] | 50 to 75
35 | AYLHSHALI [peptide SEQ ID No 274] | > 75
36 | IYDDSFIRPVTF [peptide SEQ ID No 180] | 50 to 75
37 | KYQDILETI [peptide SEQ ID No 168] | > 75
38 | YYVESGKLF [peptide SEQ ID No 166] | > 75
39 | IYLVSIPEL [peptide SEQ ID No 161] | > 75
40 | EYINQGDLHEF [peptide SEQ ID No 275] | 50 to 75
41 | VYGFQWRHF [peptide SEQ ID No 276] | > 75
42 | RYLNKAFHI [peptide SEQ ID No 284] | 50 to 75
43 | KYTSWYVAL [peptide SEQ ID No 228] | > 75
44 | KYPVEWAKF [peptide SEQ ID No 289] | > 75
45 | EYQENFLSF [peptide SEQ ID No 206] | 50 to 75
46 | RYPDNLKHL [peptide SEQ ID No 286] | 20 to 49
47 | TYIESASEL [peptide SEQ ID No 279] | 50 to 75
48 | TYTTVPRVAF [peptide SEQ ID No 172] | > 75
49 | EYSLFPGQVVI [peptide SEQ ID No 197] | 50 to 75
50 | VYVGGGQIIHL [peptide SEQ ID No 174] | 50 to 75

Row | Binder | peptide exchange yield [%]
51 | IYQLDTASI [peptide SEQ ID No 182] | 50 to 75
52 | VFKASKITF [peptide SEQ ID No 191] | 50 to 75
53 | YYEVHKELF [peptide SEQ ID No 175] | > 75
54 | KFSSFSLFF [peptide SEQ ID No 164] | 50 to 75
55 | GFFIFNERF [peptide SEQ ID No 190] | 50 to 75
56 | QYSSVFKSL [peptide SEQ ID No 216] | > 75
57 | VYEDQVGKF [peptide SEQ ID No 170] | 20 to 49
58 | IYTMIYRNL [peptide SEQ ID No 210] | > 75
59 | LYLKLWNLI [peptide SEQ ID No 214] | 50 to 75
60 | VYRDETGELF [peptide SEQ ID No 226] | 50 to 75
61 | MYDSYWRQF [peptide SEQ ID No 179] | > 75
62 | VFTRVSSFL [peptide SEQ ID No 162] | 50 to 75
63 | TYLRDQHFL [peptide SEQ ID No 187] | > 75
64 | IYSWILDHF [peptide SEQ ID No 173] | > 75
65 | RFHPTPLLL [peptide SEQ ID No 193] | > 75
66 | KYIPYKYVI [peptide SEQ ID No 223] | 50 to 75
67 | VYTLDIPVL [peptide SEQ ID No 160] | > 75
68 | VFTSTARAF [peptide SEQ ID No 183] | 50 to 75
69 | RYISDQLFTNF [peptide SEQ ID No 278] | > 75
70 | YYVYIMNHL [peptide SEQ ID No 225] | 50 to 75
71 | KYMVYPQTF [peptide SEQ ID No 267] | > 75
72 | AYTLIAPNI [peptide SEQ ID No 169] | 50 to 75
73 | TYSVSFPMF [peptide SEQ ID No 195] | > 75
74 | KFVDSTFYL [peptide SEQ ID No 282] | > 75
75 | YYLEVGKTLI [peptide SEQ ID No 211] | > 75
